The text below walks through data of patent publication US20120028894A1.

The target in the test is Insulin-Degrading Enzyme (IDE), species not stated (Homo sapiens (Human)) (UniProt P14735). Kind of test: cell-based or functional assay.

“Insulin isolated from bovine pancreas (SIGMA) (from UniProt P01317 85-105; P01317 25-54) (ligand)” showed an insulin degradation by IDE without inhibitor, 16 hours at 37 C, insulin ELISA (% degradation) of 60.
